Test results: patent publication US11549123B2, “Plant EPSP synthases and methods of use” (PIONEER HI-BRED INTERNATIONAL, INC., priority 2015, dated 2023)

What was measured:
[1] = substrate: C=C(OP(=O)(O)O)C(=O)O; experiment: EPSPS substrate saturation kinetics, maize variant 103V 107G; assay type: biochemical, Zea mays; details: other: PEP varied; pH 7.0
Description: (§1) EPSPS activity was determined by quantifying the phosphate generated from the EPSPS reaction. Release of inorganic phosphate was coupled to reaction with 2-amino-6-mercapto-7-methylpurine ribonucleoside, catalyzed by purine-nucleoside phosphorylase (M R Webb, Proc. Natl. Acad. Sci. 89:4884-4887, 1992). The absorbance change that occurs was monitored at 360 nm, where the extinction is 11,200 M^−1 cm^−1, with a Spectramax plate reader (Molecular Devices). To determine kinetic parameters, the varied substrate was present at seven concentrations (the eighth being the blank, containing no substrate) ranging from 4 to 400 uM and the unvaried substrate present at saturation. […] Reactions were monitored with a Spectramax plate reader. […] KI was then calculated from the following form of the Michaelis-Menten equation for competitive inhibition: KI=KM[I]/(KM app−KM) KM approximates the dissociation constant of the enzyme-substrate complex while kcat is the rate of conversion of substrate to product when the substrate concentration is saturating. kcat/KM is a widely accepted parameter for catalytic efficiency when substrate concentration is low (˜KM). […] The parameter kcat/KM×KI is used to quantify both catalytic efficiency and insensitivity and thus the overall fitness of the enzyme. […]

[2] = substrate: C=C(OP(=O)(O)O)C(=O)O; experiment: EPSPS substrate saturation kinetics, maize variant 103L 107A; assay type: biochemical, Zea mays; details: other: PEP varied; pH 7.0
Description: as §1

[3] = substrate: C=C(OP(=O)(O)O)C(=O)O; experiment: EPSPS substrate saturation kinetics, maize variant 103G 107W (EPSPS-TGPW); assay type: biochemical; details: other: PEP varied; pH 7.0
Description: as §1

[4] = substrate: C=C(OP(=O)(O)O)C(=O)O; experiment: EPSPS substrate saturation kinetics, maize variant 103L 107T; assay type: biochemical, Zea mays; details: other: PEP varied; pH 7.0
Description: as §1

[5] = substrate: C=C(OP(=O)(O)O)C(=O)O; experiment: EPSPS substrate saturation kinetics, maize variant 103S 107N; assay type: biochemical, Zea mays; details: other: PEP varied; pH 7.0
Description: as §1

maize EPSPS = experiment: EPSPS reaction rates at 200 uM PEP and S3P, and at 30 uM substrates with 1 mM glyphosate; assay type: biochemical, Zea mays; details: Zea ma
Description: as §1

[6] = system: Glycine max (93Y21) hairy root; experiment: Hairy root growth from transformed soybean cotyledons with or without 25 uM glyphosate; assay type: cell-based; details: constructs containing the UBQ10 promoter

B1: Zea mays EPSPS variant V-G at positions 103-107 (Zea mays; P106G/T102V) (protein)
chain: MAGAEEIVLQPIKEISGTVKLPGSKSLSNRILLLAALSEGTTVVDNLLNSEDVHYMLGALRTLGLSVEADKAAKRAVVVGCGGKFPVEDAKEEVQLFLGNAGVAMRGLTAAVTAAGGNATYVLDGVPRMRERPIGDLVVGLKQLGADVDCFLGTDCPPVRVNGIGGLPGGKVKLSGSISSQYLSALLMAAPLALGDVEIEIIDKLISIPYVEMTLRLMERFGVKAEHSDSWDRFYIKGGQKYKSPKNAYVEGDASSASYFLAGAAITGGTVTVEGCGTTSLQGDVKFAEVLEMMGAKVTWTETSVTVTGPPREPFGRKHLKAIDVNMNKMPDVAMTLAVVALFADGPTAIRDVASWRVKETERMVAIRTELTKLGASVEEGPDYCIITPPEKLNVTAIDTYDDHRMAMAFSLAACAEVPVTIRDPGCTRKTFPDYFDVLSTFVKN
[1]
  Km: 133 µM

B2: Zea mays EPSPS variant L-A at positions 103-107 (Zea mays; P106A/T102L) (protein)
chain: MAGAEEIVLQPIKEISGTVKLPGSKSLSNRILLLAALSEGTTVVDNLLNSEDVHYMLGALRTLGLSVEADKAAKRAVVVGCGGKFPVEDAKEEVQLFLGNAGLAMRALTAAVTAAGGNATYVLDGVPRMRERPIGDLVVGLKQLGADVDCFLGTDCPPVRVNGIGGLPGGKVKLSGSISSQYLSALLMAAPLALGDVEIEIIDKLISIPYVEMTLRLMERFGVKAEHSDSWDRFYIKGGQKYKSPKNAYVEGDASSASYFLAGAAITGGTVTVEGCGTTSLQGDVKFAEVLEMMGAKVTWTETSVTVTGPPREPFGRKHLKAIDVNMNKMPDVAMTLAVVALFADGPTAIRDVASWRVKETERMVAIRTELTKLGASVEEGPDYCIITPPEKLNVTAIDTYDDHRMAMAFSLAACAEVPVTIRDPGCTRKTFPDYFDVLSTFVKN
[2]
  Km: 50.6 µM

B3: Zea mays EPSPS variant G-W at positions 103-107 (EPSPS-TGPW; T103G P107W) (Zea mays; P106W/T102G) (protein)
chain: MAGAEEIVLQPIKEISGTVKLPGSKSLSNRILLLAALSEGTTVVDNLLNSEDVHYMLGALRTLGLSVEADKAAKRAVVVGCGGKFPVEDAKEEVQLFLGNAGGAMRWLTAAVTAAGGNATYVLDGVPRMRERPIGDLVVGLKQLGADVDCFLGTDCPPVRVNGIGGLPGGKVKLSGSISSQYLSALLMAAPLALGDVEIEIIDKLISIPYVEMTLRLMERFGVKAEHSDSWDRFYIKGGQKYKSPKNAYVEGDASSASYFLAGAAITGGTVTVEGCGTTSLQGDVKFAEVLEMMGAKVTWTETSVTVTGPPREPFGRKHLKAIDVNMNKMPDVAMTLAVVALFADGPTAIRDVASWRVKETERMVAIRTELTKLGASVEEGPDYCIITPPEKLNVTAIDTYDDHRMAMAFSLAACAEVPVTIRDPGCTRKTFPDYFDVLSTFVKN
[3]
  Km: 82.2 µM

B4: Zea mays EPSPS variant L-T at positions 103-107 (Zea mays; P106T/T102L) (protein)
chain: MAGAEEIVLQPIKEISGTVKLPGSKSLSNRILLLAALSEGTTVVDNLLNSEDVHYMLGALRTLGLSVEADKAAKRAVVVGCGGKFPVEDAKEEVQLFLGNAGLAMRTLTAAVTAAGGNATYVLDGVPRMRERPIGDLVVGLKQLGADVDCFLGTDCPPVRVNGIGGLPGGKVKLSGSISSQYLSALLMAAPLALGDVEIEIIDKLISIPYVEMTLRLMERFGVKAEHSDSWDRFYIKGGQKYKSPKNAYVEGDASSASYFLAGAAITGGTVTVEGCGTTSLQGDVKFAEVLEMMGAKVTWTETSVTVTGPPREPFGRKHLKAIDVNMNKMPDVAMTLAVVALFADGPTAIRDVASWRVKETERMVAIRTELTKLGASVEEGPDYCIITPPEKLNVTAIDTYDDHRMAMAFSLAACAEVPVTIRDPGCTRKTFPDYFDVLSTFVKN
[4]
  Km: 45.8 µM

B5: Zea mays EPSPS variant S-N at positions 103-107 (Zea mays; P106N/T102S) (protein)
chain: MAGAEEIVLQPIKEISGTVKLPGSKSLSNRILLLAALSEGTTVVDNLLNSEDVHYMLGALRTLGLSVEADKAAKRAVVVGCGGKFPVEDAKEEVQLFLGNAGSAMRNLTAAVTAAGGNATYVLDGVPRMRERPIGDLVVGLKQLGADVDCFLGTDCPPVRVNGIGGLPGGKVKLSGSISSQYLSALLMAAPLALGDVEIEIIDKLISIPYVEMTLRLMERFGVKAEHSDSWDRFYIKGGQKYKSPKNAYVEGDASSASYFLAGAAITGGTVTVEGCGTTSLQGDVKFAEVLEMMGAKVTWTETSVTVTGPPREPFGRKHLKAIDVNMNKMPDVAMTLAVVALFADGPTAIRDVASWRVKETERMVAIRTELTKLGASVEEGPDYCIITPPEKLNVTAIDTYDDHRMAMAFSLAACAEVPVTIRDPGCTRKTFPDYFDVLSTFVKN
[5]
  Km: 38.1 µM

B6: 123-C1: maize EPSPS with A2R, A4W, K84R, L98C, G102A, I208L, K243E, E391P, D402G (protein)
chain: MRGWEEIVLQPIKEISGTVKLPGSKSLSNRILLLAALSEGTTVVDNLLNSEDVHYMLGALRTLGLSVEADKAAKRAVVVGCGGRFPVEDAKEEVQLFCGNAATAMRPLTAAVTAAGGNATYVLDGVPRMRERPIGDLVVGLKQLGADVDCFLGTDCPPVRVNGIGGLPGGKVKLSGSISSQYLSALLMAAPLALGDVEIEIIDKLISLPYVEMTLRLMERFGVKAEHSDSWDRFYIKGGQKYESPKNAYVEGDASSASYFLAGAAITGGTVTVEGCGTTSLQGDVKFAEVLEMMGAKVTWTETSVTVTGPPREPFGRKHLKAIDVNMNKMPDVAMTLAVVALFADGPTAIRDVASWRVKETERMVAIRTELTKLGASVEEGPDYCIITPPPKLNVTAIDTYGDHRMAMAFSLAACAEVPVTIRDPGCTRKTFPDYFDVLSTFVKN
modifications: maize clone 123-C1
notes: maize EPSPS with A2R, A4W, K84R, L98C, G102A, I208L, K243E, E391P, D402G
Maize EPSPS; PEP and S3P both at 200 uM, no glyphosate
  Reaction rate, 200 uM, no glyph: 516
Maize EPSPS; substrates at 30 uM, glyphosate at 1 mM
  Reaction rate, 30 uM, 1 mM glyph: 94.5
[6]
  hairy root growth in the presence of 25 uM glyphosate: generated hairy roots
